Experimental data: US10308692B2, “Variants of GAL2 transporter and their uses” (Johann Wolfgang Goethe-Universität Frankfurt, priority 2014, dated 2019)
Where a chain is given by its changes, count along the chain named. In names and notes the source's numbering stands.

B1: Gal2_M435I: M435I exchange introduced into wild-type Gal2 (protein, UniProt P13181 1-574, looked up, variant M435I)
Galactose transporter: MAVEENNMPVVSQQPQAGEDVISSLSKDSHLSAQSQKYSNDELKAGESGSEGSQSVPIEIPKKPMSEYVTVSLLCLCVAFGGFMFGWDTGTISGFVVQTDFLRRFGMKHKDGTHYLSNVRTGLIVAIFNIGCAFGGIILSKGGDMYGRKKGLSIVVSVYIVGIIIQIASINKWYQYFIGRIISGLGVGGIAVLCPMLISEIAPKHLRGTLVSCYQLMITAGIFLGYCTNYGTKSYSNSVQWRVPLGLCFAWSLFMIGALTLVPESPRYLCEVNKVEDAKRSIAKSNKVSPEDPAVQAELDLIMAGIEAEKLAGNASWGELFSTKTKVFQRLLMGVFVQMFQQLTGNNYFFYYGTVIFKSVGLDDSFETSIVIGVVNFASTFFSLWTVENLGHRKCLLLGAATMMACMVIYASVGVTRLYPHGKSQPSSKGAGNCIIVFTCFYIFCYATTWAPVAWVITAESFPLRVKSKCMALASASNWVWGFLIAFFTPFITSAINFYYGYVFMGCLVAMFFYVFFFVPETKGLSLEEIQELWEEGVLPWKSEGWIPSSRRGNNYDLEDLQHDDKPWYKAMLE
B2: Gal2_ep3.1: Gal2 epPCR clone with mutations M107K V239L N376Y M435I L558S (protein, UniProt P13181 1-574, looked up, variant M107K V239L N376Y M435I L558S)
Galactose transporter: B1 Galactose transporter with M107K, V239L, N376Y, L558S
B3: Gal2_ep3.3: Gal2 epPCR clone with mutations T219S M255L R267C L299S N346I E528D (protein, UniProt P13181 1-574, looked up, variant T219S M255L R267C L299S N346I E528D)
Galactose transporter: B1 Galactose transporter with T219S, M255L, R267C, L299S, N346I, I435M, E528D

Experiments:
Format in all cases: cell-based, Saccharomyces cerevisiae
[1] = system: EBY.VW4000; assay: Serial dilution drop test on glucose and galactose media
Description: The transformants were cultivated in 5 ml SCM-ura with 20 g/l maltose at 30°, washed with water and adjusted to an OD600 of 1. Thereof it followed a serial dilution. 5 μl were dropped onto the respective media and it was incubated for three days at 30°. As a control for the dilution SCM-ura with 20 g/l maltose was taken. The cells of the mutated transporters were dropped onto SCD-ura with 0.2% and 2% glucose, as well as SCG-ura with 0.2% and 2% D-galactose to test their functionality. Furthermore the wild type, Gal2_ep3.1 and Gal2_N376Y were used for comparison.
FIG. 4: Drop test of Gal2_M435I in EBY.VW4000 after three days at 30°. Several dilutions from left to right were dropped (undiluted, 1:10, 1:100, 1:1000).
(§1) For easy comparison of growth of different S. cerevisiae strains under various growth conditions a serial dilution spot assay was performed. Cells were grown in liquid culture to exponential phase in appropriate medium, collected by centrifugation (2000×g, 2 min), washed twice with sterile water and then resuspended to an OD600 of 1.0 in selective medium without carbon source. From this cell suspension a ten-fold serial dilution was prepared in selective medium (four dilution steps). 6 μl of each cell suspension were spotted on plates of the media to be examined and allowed to dry. Plates were incubated at 30° C.

[2] = system: AFY10; assay: Serial dilution drop test on xylose and xylose-glucose media
Description: The transformants were cultivated in 5 ml SCE-ura-leu with 2% ethanol at 30°, washed with water and adjusted to an OD600 of 1. Thereof it followed a serial dilution. 5 μl were dropped onto the respective media and it was incubated for five days at 30°. As a control for the dilution SCE-ura-leu with 2% ethanol was taken. The cells of the mutated transporters were dropped onto SCX-ura-leu with 0.2% and 2% D-xylose, as well as SC-ura-leu with 1% D-xylose with 4% D-glucose and SC-ura-leu with 0.2% D-xylose and 2% D-glucose to test their functionality. Furthermore the wild type and Gal2_ep3.1 were used for comparison.
FIG. 5: Drop test of Gal2_M435I in AFY10 after five days at 30°. Several dilutions were dropped from left to right (undiluted, 1:10, 1:100, 1:1000).
FIG. 6: Drop test of Gal2_N376F, N376F+M435I and N376Y+M435I in AFY10 after five days at 30°. Several dilutions were dropped from left to right (undiluted, 1:10, 1:100, 1:1000). But on 20 g/l xylose the order was different (undiluted, 1:100, 1:1000, 1:10).
as §1
To characterize the different constructs which all were verified by sequencing they were transformed together with vector YEp181_pHXT7-optXI_Clos into competent AFY10 cells and drop tests were performed.

[3] = system: AFY10X; assay: epPCR-screening by replica-plating on xylose plus glucose media; conditions: media with 1% xylose and increasing amounts of glucose (up to 5%)
Text: Mutants of GAL2 were created using error-prone PCR (epPCR) and then screened in AFY10X as described in Farwick et al. (2014). This method is faster than evolutionary engineering experiments and more often generates multiple mutations per ORF that might have a unique combined effect. On the downside, there might be more silent mutations among the increased number of mutations which might aggravate the identification of the relevant mutations in each clone. The GAL2 ORF was amplified in an epPCR with short amplification primers, applying various mutation rates, and the purified fragments then again amplified for recombinational cloning in a second PCR. Functional plasmids were in vivo assembled from PCR fragments and linearized p426H7 vector directly in the screening strain AFY10X. Transformants were plated out on selective SCE2 plates and subsequently screened. Colonies were tested for improved growth on media with 1% xylose and increasing amounts of glucose (up to 5%) by replica-plating. Seven clones were selected and grown in SCE2 ura^− leu^−+G418+2-DOG and samples of these cultures streaked out on plates for comparison and to obtain single colonies. Five of these seven clones were confirmed to grow on xylose glucose media. The plasmids of two clones were successfully isolated as described (yeast DNA was digested with EcoRI) and sequenced.

[4] = drop test, FIG. 4, versus wild-type Gal2

Row | Molecule | growth on glucose ([1]; 2 g/l and 20 g/l glucose) | uptake of galactose [1, 4] | uptake of glucose [1, 4] | growth on low xylose ([2]; 0.2% (2 g/l) xylose) | growth on high xylose ([2]; 2% (20 g/l) xylose, compared within the same drop test) | growth on xylose-glucose mixtures ([2]; FIG. 5) | uptake of xylose ([2]; drop test, FIG. 5) | growth on medium (xylose + glucose) [3]
1 | B1 | much slower | no effect | strongly reduced | No growth | slow growth | No growth | reduced | –
2 | B2 | – | – | – | – | – | – | – | 1 + 5
3 | B3 | – | – | – | – | – | – | – | 1 + 3
